The record followed here is patent US20240309109A1 (MorphoSys, published 2024).

For assay [1], the target named is T1, human CD38 Fc-fusion aa 45-300 (human, UniProt P28907 45-300).
T1 construct: Expressed in HEK293 behind a human Vkappa leader, which is left out here; also called CD38-Fc fusion protein; CD38 Fc-Fusion protein
In words: ELISA on CD38 Fc-fusion protein, IgG format.

The target in assay [2] is T1, human CD38 Fc-fusion aa 45-300. Put plainly: SPR (Biacore), Fab on immobilized CD38 Fc-fusion.
Procedure: The Biacore studies were performed on directly immobilized antigen (CD38-Fc fusion protein).
The kinetic constants kₒₙ and koff were determined with serial dilutions of the respective Fab binding to covalently immobilized CD38-Fc fusion protein using the BIAcore 3000 instrument (Biacore, Uppsala, Sweden). For covalent antigen immobilization standard EDC-NHS amine coupling chemistry was used. For direct coupling of CD38 Fc-fusion protein CM5 senor chips (Biacore) were coated with ˜600-700 RU in 10 mM acetate buffer, pH 4.5. For the reference flow cell a respective amount of HSA (human serum albumin) was used. […] Injection time for each concentration was 1 min, followed by 2 min dissociation phase. For regeneration 5 μl 10 mM HCl was used. All sensograms were fitted locally using BIA evaluation software 3.1 (Biacore).
Assay [3] has as its target T2, human CD38 on cells (human, UniProt P28907 1-300).
T2 construct: The cell that carried CD38 is named under assay in each row; also called CD38 on Raji, RPMI8226, OPM2, CCRF-CEM, human erythrocytes, CD38 CHO-K1 transfectants
Put plainly: FACS Scatchard on OPM2 cells, IgG format.

Assay [4] has as its target T2, human CD38 on cells. In words: FACS Scatchard, IgG1 on Raji cells.

By Kd is commonly meant the constant that tells how readily two partners part at equilibrium. For orientation: EC50 means the concentration that produces a half-maximal response. Low readings indicate an effect from little substance, high ones a need for much substance.

B1: MOR06204 IgG (antibody, V domains shown)
VH: QVQLVESGGGLVQPGGSLRLSCAASGFTFSSYAMNWVRQAPGKGLEWVSHIRKKNTSYTTEYAASVKGRFTISRDNSKNTLYLQMNSLRAEDTAVYYCAREDGSYMTDYFAYWGQGTLVTVSS
VL: DIELTQPPSVSVAPGQTARISCSGDNIGHYYVSWYQQKPGQAPVLVIYSDSNRPSGIPERFSGSNSGNTATLTISGTQAEDEADYYCQSYNGTYVFGGGTKLTVLG
notes: copies: 2 + 2
For B1, the “ELISA CD38 Fc-Fusion protein (% Reactivity of MOR03087)” value in assay [1] is 56%.

B2: MOR06214 IgG (antibody, V domains shown)
VH: QVQLVESGGGLVQPGGSLRLSCAASGFTFSSYAMNWVRQAPGKGLEWVSNIQRVGSTYYADSVKGRFTISRDNSKNTLYLQMNSLRAEDTAVYYCAREDGSYMTDYFAYWGQGTLVTVSS
VL: DIELTQPPSVSVAPGQTARISCSGDNIGHYYVSWYQQKPGQAPVLVIYSDSNRPSGIPERFSGSNSGNTATLTISGTQAEDEADYYCQSYNGTYVFGGGTKLTVLG
notes: copies: 2 + 2
Turning to B2, in assay [1], the “ELISA CD38 Fc-Fusion protein (% Reactivity of MOR03087)” value amounted to 109%.

B3: MOR03129 Fab (Fab, V domains shown)
VH: QVQLVESGGGLVQPGGSLRLSCAASGFTFSNYSMNWVRQAPGKGLEWVSYIYGGGSYTYYADSVKGRFTISRDNSKNTLYLQMNSLRAEDTAVYYCARQAGMYFDVWGQGTLVTVSS
VL: DIELTQPPSVSVAPGQTARISCSGDNLGSKVVSWYQQKPGQAPVLVIYYDNKRPSGIPERFSGSNSGNTATLTISGTQAEDEADYYCQSYTFESGSVVFGGGTKLTVLG
notes: Fab format
For the molecule B3, the affinity in assay [2], expressed as Kd, was 43 nM.

B4: MOR06200 IgG (antibody, V domains shown)
VH: QVQLVESGGGLVQPGGSLRLSCAASGFTFSSYYMNWVRQAPGKGLEWVSAISNNGNVTYYADSVKGRFTISRDNSKNTLYLQMNSLRAEDTAVYYCARDLPLVYTGFAYWGQGTLVTVSS
VL: DIELTQPPSVSVAPGQTARISCSGDNLRHYYVYWYQQKPGQAPVLVIYGDSKRPSGIPERFSGSNSGNTATLTISGTQAEDEADYYCQTYTGGASLVFGGGTKLTVLG
notes: copies: 2 + 2
In the assay with human CD38 on cells [3], B4 had an EC50 of 7.15 nM. In addition, in assay [1], the “ELISA CD38 Fc-Fusion protein (% Reactivity of MOR03087)” value stood at 144%.

B5: MOR06186 IgG (antibody, V domains shown)
VH: QVQLVESGGGLVQPGGSLRLSCAASGFTFSSYYMNWVRQAPGKGLEWVSAINLSGSAKYYADSVKGRFTISRDNSKNTLYLQMNSLRAEDTAVYYCARDLPLVYTGFAYWGQGTLVTVSS
VL: DIELTQPPSVSVAPGQTARISCSGDNLRHYYVYWYQQKPGQAPVLVIYGDSKRPSGIPERFSGSNSGNTATLTISGTQAEDEADYYCQTYTGGASLVFGGGTKLTVLG
For B5, a half-maximal response in the assay with human CD38 on cells [3] (EC50) required 15.6 nM. In addition, the “ELISA CD38 Fc-Fusion protein (% Reactivity of MOR03087)” value in assay [1] was 117%.

B6: MOR06187 IgG (antibody, V domains shown)
VH: QVQLVESGGGLVQPGGSLRLSCAASGFTFSSYYMNWVRQAPGKGLEWVSAISSNGDITYYADSVKGRFTISRDNSKNTLYLQMNSLRAEDTAVYYCARDLPLVYTGFAYWGQGTLVTVSS
VL: DIELTQPPSVSVAPGQTARISCSGDNLRHYYVYWYQQKPGQAPVLVIYGDSKRPSGIPERFSGSNSGNTATLTISGTQAEDEADYYCQTYTGGASLVFGGGTKLTVLG
Turning to B6, in the assay with human CD38 on cells [3], it took 9.37 nM to reach a half-maximal effect (EC50). Moreover, in assay [1], the “ELISA CD38 Fc-Fusion protein (% Reactivity of MOR03087)” value was 145%.

B7: MOR06184 IgG (antibody, V domains shown)
VH: QVQLVESGGGLVQPGGSLRLSCAASGFTFSSYYMNWVRQAPGKGLEWVSAISHDGNVKYYADSVKGRFTISRDNSKNTLYLQMNSLRAEDTAVYYCARDLPLVYTGFAYWGQGTLVTVSS
VL: DIELTQPPSVSVAPGQTARISCSGDNLRHYYVYWYQQKPGQAPVLVIYGDSKRPSGIPERFSGSNSGNTATLTISGTQAEDEADYYCQTYTGGASLVFGGGTKLTVLG
With B7, the half-maximal effective concentration (EC50) with human CD38 on cells [3] was 10.6 nM. In assay [1], the “ELISA CD38 Fc-Fusion protein (% Reactivity of MOR03087)” value was determined as 150%.

B8: MOR06183 IgG (antibody, V domains shown)
VH: QVQLVESGGGLVQPGGSLRLSCAASGFTFSSYYMNWVRQAPGKGLEWVSGINMESTRIYYADSVKGRFTISRDNSKNTLYLQMNSLRAEDTAVYYCARDLPLVYTGFAYWGQGTLVTVSS
VL: DIELTQPPSVSVAPGQTARISCSGDNLRHYYVYWYQQKPGQAPVLVIYGDSKRPSGIPERFSGSNSGNTATLTISGTQAEDEADYYCQTYTGGASLVFGGGTKLTVLG
As for B8, the midpoint of the response with human CD38 on cells [3], the EC50, lay at 8.91 nM. The “ELISA CD38 Fc-Fusion protein (% Reactivity of MOR03087)” value in assay [1] is 106%.

B9: MOR06185 IgG (antibody, V domains shown)
VH: QVQLVESGGGLVQPGGSLRLSCAASGFTFSSYYMNWVRQAPGKGLEWVSAISMNGDYISYADSVKGRFTISRDNSKNTLYLQMNSLRAEDTAVYYCARDLPLVYTGFAYWGQGTLVTVSS
VL: DIELTQPPSVSVAPGQTARISCSGDNLRHYYVYWYQQKPGQAPVLVIYGDSKRPSGIPERFSGSNSGNTATLTISGTQAEDEADYYCQTYTGGASLVFGGGTKLTVLG
B9 yielded an EC50 in the assay with human CD38 on cells [3] of 11.5 nM. Moreover, the “ELISA CD38 Fc-Fusion protein (% Reactivity of MOR03087)” value in assay [1] is 142%.

B10: MOR06188 IgG (antibody, V domains shown)
VH: QVQLVESGGGLVQPGGSLRLSCAASGFTFSSYYMNWVRQAPGKGLEWVSAISTNGWQTYYADSVKGRFTISRDNSKNTLYLQMNSLRAEDTAVYYCARDLPLVYTGFAYWGQGTLVTVSS
VL: DIELTQPPSVSVAPGQTARISCSGDNLRHYYVYWYQQKPGQAPVLVIYGDSKRPSGIPERFSGSNSGNTATLTISGTQAEDEADYYCQTYTGGASLVFGGGTKLTVLG
B10 gave an EC50 in the assay with human CD38 on cells [3] of 20.1 nM. For the same molecule, the “ELISA CD38 Fc-Fusion protein (% Reactivity of MOR03087)” value in assay [1] is 140%.

B11: MOR06201 IgG (antibody, V domains shown)
VH: QVQLVESGGGLVQPGGSLRLSCAASGFTFSSYYMNWVRQAPGKGLEWVSAISMHGDTTYYADSVKGRFTISRDNSKNTLYLQMNSLRAEDTAVYYCARDLPLVYTGFAYWGQGTLVTVSS
VL: DIELTQPPSVSVAPGQTARISCSGDNLRHYYVYWYQQKPGQAPVLVIYGDSKRPSGIPERFSGSNSGNTATLTISGTQAEDEADYYCQTYTGGASLVFGGGTKLTVLG
notes: copies: 2 + 2
Turning to B11, the “ELISA CD38 Fc-Fusion protein (% Reactivity of MOR03087)” value in assay [1] was determined as 137%.

B12: MOR03081 IgG1 (antibody, V domains shown)
VH: QVQLVESGGGLVQPGGSLRLSCAASGFTFSSYALHWVRQAPGKGLEWVSSISGLGSTTYYADSVKGRFTISRDNSKNTLYLQMNSLRAEDTAVYYCARYHYEYHYFSSGFDNWGQGTLVTVSS
VL: DIVLTQSPATLSLSPGERATLSCRASQTGSTSYLAWYQQKPGQAPRLLIYDASKRATGVPARFSGSGSGTDFTLTISSLEPEDFATYYCHQYYNVPHTFGQGTKVEIKR
The molecule B12 gave a dissociation constant Kd with human CD38 on cells [4] of 2.5 nM.

B13: MOR03102 Fab (Fab, V domains shown)
VH: QVQLQESGPGLVKPGETLSLTCTVSGGSISGNYWSWIRQAPGKGLEWIGDYHGSTYYNPSLKGRVTISVDTSKNQFSLKLSSVTAEDTAVYYCAREQYHWGLAWTGFDNWGQGTLVTVSS
VL: DIELTQPPSVSVAPGQTARISCSGDNLGHYYVSWYQQKPGQAPVLVIYDDSDRPSGIPERFSGSNSGNTATLTISGTQAEDEADYYCGAYAMHMTVFGGGTKLTVLG
notes: Fab format
B13: in assay [2], the dissociation constant Kd was determined as 64 nM.

B14: MOR03102 IgG1 (antibody, V domains shown)
VH: QVQLQESGPGLVKPGETLSLTCTVSGGSISGNYWSWIRQAPGKGLEWIGDYHGSTYYNPSLKGRVTISVDTSKNQFSLKLSSVTAEDTAVYYCAREQYHWGLAWTGFDNWGQGTLVTVSS
VL: DIELTQPPSVSVAPGQTARISCSGDNLGHYYVSWYQQKPGQAPVLVIYDDSDRPSGIPERFSGSNSGNTATLTISGTQAEDEADYYCGAYAMHMTVFGGGTKLTVLG
B14 had a Kd with human CD38 on cells [4] of 5 nM.

B15: MOR03089 Fab (Fab, V domains shown)
VH: QVQLKESGPALVKPTQTLTLTCTFSGFSLSSDGMGVGWIRQPPGKALEWLALIDWDDDKRYSTSLKTRLTISKDTSKNQVVLTMTNMDPVDTATYYCARFNWFYRLAFVNPDVWGQGTLVTVSS
VL: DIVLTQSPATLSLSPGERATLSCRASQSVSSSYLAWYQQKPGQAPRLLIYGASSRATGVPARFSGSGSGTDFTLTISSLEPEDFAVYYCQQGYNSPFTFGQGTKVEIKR
notes: Fab format
Consider B15, for which the affinity in assay [2], expressed as Kd, was 340 nM. This counts as sub-micromolar.

B16: MOR03101 Fab (Fab, V domains shown)
VH: QVQLKESGPALVKPTQTLTLTCTFSGFSLSTSRVGVSWIRQPPGKALEWLAHIDWNDDKYYSTSLKTRLTISKDTSKNQVVLTMTNMDPVDTATYYCAREDRLLGGYGYDVWGQGTLVTVSS
VL: DIELTQPPSVSVAPGQTARISCSGDSLGSYYVHWYQQKPGQAPVLVIGDDTKRPSGIPERFSGSNSGNTATLTISGTQAEDEADYYCGSRTGYNNSFVFGGGTKLTVLG
notes: Fab format
As for B16, in assay [2], the Kd was determined as 314 nM. The Kd values of the last two molecules are within 1.5-fold of each other.

B17: MOR03131 Fab (Fab, V domains shown)
VH: QVQLKESGPALVKPTQTLTLTCTFSGFSLSNSGVGVGWIRQPPGKALEWLADIYSDTTKRYSTSLKTRLTISKDTSKNQVVLTMTNMDPVDTATYYCARYGEAYFDYWGQGTLVTVSS
VL: DIELTQPPSVSVAPGQTARISCSGDNLGNFYVHWYQQKPGQAPVLVIYEDSNRPSGIPERFSGSNSGNTATLTISGTQAEDEADYYCSSWDMYRTIFVFGGGTKLTVLG
notes: Fab format
Molecule B17 registered a Kd in assay [2] of 451 nM.

B18: MOR03085 Fab (Fab, V domains shown)
VH: QVQLVQSGAEVKKPGASVKVSCKASGYTFTGYYINWVRQAPGQGLEWMGWIFPNGGSTGYAQKFQGRVTMTRDTSISTAYMELSSLRSEDTAVYYCARGNIFIFDYWGQGTLVTVSS
VL: DIVLTQPPSVSGAPGQRVTISCSGSSSNIGNNYVSWYQQLPGTAPKLLIYGDDQRPSGVPDRFSGSKSGTSASLAITGLQSEDEADYYCQSYGTFSSFVFGGGTKLTVLG
notes: Fab format
The molecule B18 returned a dissociation constant Kd in assay [2] of 122 nM.

B19: MOR03086 Fab (Fab, V domains shown)
VH: QVQLVESGGGLVQPGGSLRLSCAASGFTFTSYYMHWVRQAPGKGLEWVSYIDSSGSSTYYADSVKGRFTISRDNSKNTLYLQMNSLRAEDTAVYYCARQLMPFGGYFDVWGQGTLVTVSS
VL: DIQMTQSPSSLSASVGDRVTITCRASQNISQWLNWYQQKPGKAPKLLIYGASNLQSGVPSRFSGSGSGTDFTLTISSLQPEDFATYYCQQYYDLPNTFGQGTKVEIKR
notes: Fab format
As to B19, binding in assay [2] was put at a Kd of 30 nM.
